From paper PMC3902928, “Nuclear ubiquitination by FBXL5 modulates Snail1 DNA binding and stability” (Nucleic Acids Research, 2013)

T1: 3xFlag-FBXL5 (baculovirus) (UniProt Q9UKA1 1-691)
T1 construct: FBXL5; pFastBac1 3xFlag-FBXL5 provided by Dr Bruick; source: also co-infected with 6xHis-Skp1, HA-Cullin1 and Rbx1 for the SCF^FBXL5 complex; not shown: 3xFlag, N-terminal, kept
T1 sequence (looked up): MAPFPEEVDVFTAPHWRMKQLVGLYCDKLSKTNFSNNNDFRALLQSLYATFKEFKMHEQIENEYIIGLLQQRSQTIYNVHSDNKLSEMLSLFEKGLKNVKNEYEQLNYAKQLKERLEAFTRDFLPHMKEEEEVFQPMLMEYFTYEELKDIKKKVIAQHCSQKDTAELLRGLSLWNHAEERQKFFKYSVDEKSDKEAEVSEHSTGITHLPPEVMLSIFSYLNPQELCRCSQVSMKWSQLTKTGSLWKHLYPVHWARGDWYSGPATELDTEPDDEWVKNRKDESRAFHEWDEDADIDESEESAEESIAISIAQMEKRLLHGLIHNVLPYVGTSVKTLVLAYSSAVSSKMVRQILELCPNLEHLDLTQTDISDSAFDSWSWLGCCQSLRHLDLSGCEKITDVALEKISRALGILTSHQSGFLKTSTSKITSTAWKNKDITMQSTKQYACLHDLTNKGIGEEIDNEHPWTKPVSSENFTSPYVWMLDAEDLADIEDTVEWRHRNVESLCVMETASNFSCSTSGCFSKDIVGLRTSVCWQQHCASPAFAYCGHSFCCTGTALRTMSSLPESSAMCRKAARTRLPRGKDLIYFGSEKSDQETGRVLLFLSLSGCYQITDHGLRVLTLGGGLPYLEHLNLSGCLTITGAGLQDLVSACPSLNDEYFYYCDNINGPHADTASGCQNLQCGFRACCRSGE


Legend:
GST-FBXL5 (pGEX-6P-1) = GST-FBXL5 (pGEX-6P-1) (UniProt Q9UKA1); experiment: pull-down; GST or GST-FBXL5 protein on glutathione-sepharose with extracts from transfected HEK293T cells; western blot
[1] = molecular target: T1, 3xFlag-FBXL5 (baculovirus); experiment: pull-down; 0.2 pmol 3xFlag-FBXL5 incubated with 2.5 pmol GST or GST-Snail1 as baits on glutathione-sepharose; western blot; details: both partners purified

Molecule	decrease of binding against the full C-terminal domain (GST-FBXL5 (pGEX-6P-1)) [%]	binding result [1]
GFP-Snail1CT ΔZnF1 (from UniProt Q02085 181-264) (domain or fragment)	45	
GFP-Snail1CT ΔZnF1-2 (from UniProt Q02085 209-264) (domain or fragment)	80	
GFP-Snail1CT ΔZnF3-4 (from UniProt Q02085 152-208) (domain or fragment)	> 50	
GST-Snail1-HA (baculovirus) (natural protein, UniProt Q02085 1-264, looked up, Snail1; insert subcloned from pcDNA3-Snail1-HA through pEBG-2T into pFastBac1; source: Sf9, baculovirus-infected, purified; not shown: GST, N-terminal, kept) MPRSFLVRKPSDPRRKPNYSELQDACVEFTFQQPYDQAHLLAAIPPPEVLNPAASLPTLIWDSLLVPQVRPVAWATLPLRESPKAVELTSLSDEDSGKSSQPPSPPSPAPSSFSSTSASSLEAEAFIAFPGLGQLPKQLARLSVAKDPQSRKIFNCKYCNKEYLSLGALKMHIRSHTLPCVCTTCGKAFSRPWLLQGHVRTHTGEKPFSCSHCNRAFADRSNLRAHLQTHSDVKRYQCQACARTFSRMSLLHKHQESGCSGGPR		binds
